Laboratory results reported in patent publication US20180142007A1 (AXON NEUROSCIENCE, published 2018).
Numbering of substitutions follows the chain as printed. Each block holds one binder with its values, some of them ahead of it.

Key:
[1] = target: T1, misdisordered truncated tau 151-391/4R (human, UniProt P10636 468-708); assay: cell-based or functional assay
[2] = target: T1, misdisordered truncated tau 151-391/4R; assay: SPR Biacore T200, antibody captured by anti-IgG on CM5 chip, tau 151-391/4R as analyte, steady state analysis
Procedure: Antibody affinity determination was carried out by SPR analysis using a Biacore T200. Anti-human IgG (GE Healthcare, cat. no. BR-1008-39) or anti-murine IgG (GE Healthcare, cat. no. BR-1008-38) was covalently immobilized to a CM5 chip (Cat. no. BR-1005-30) to the point of saturation and in accordance with the manufacturer's instructions. […] Association time was set at 150 sec and disassociation time 300 sec. Tau concentrations were chosen empirically in order to obtain curvature during the association phase. The kinetics of binding/dissociation was initially analyzed according to the 1:1 interaction model using BIAcore T200 evaluation software package 2.0.

tau peptide 282-311 = target: T2, tau peptide 282-311 (human); assay: direct ELISA, tau peptide coated on plate
T2 construct: Synthetic peptide (EZBiolabs), numbered on tau 2N4R; also called peptide derived from MTBRII
T2 peptide: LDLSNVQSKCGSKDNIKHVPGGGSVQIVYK

[3] = target: T1, misdisordered truncated tau 151-391/4R; assay: binding ELISA, plate coated with Tau 151-391/4R

T1 sequence (P10636 468-708): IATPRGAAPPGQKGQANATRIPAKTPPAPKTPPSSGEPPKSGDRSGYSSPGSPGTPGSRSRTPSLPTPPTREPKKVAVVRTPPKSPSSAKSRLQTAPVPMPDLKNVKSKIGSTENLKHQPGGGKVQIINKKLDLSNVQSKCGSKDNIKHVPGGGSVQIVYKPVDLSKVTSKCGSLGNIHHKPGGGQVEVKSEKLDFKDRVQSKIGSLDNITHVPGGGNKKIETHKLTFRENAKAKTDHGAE

B1: mouse monoclonal antibody DC8E8 (antibody, mouse IgG1)
heavy: QVQLQQSGPELVKPGTSVKMPCKASGYIFTDYVISWVKQRTGQGLEWIGEIFPRSGSTYYNEKFKGKATLTADKSSNTAYMQLSSVTSEDSAVYFCARDYYGTSFAMDYWGQGTSVTVSSAKTTPPSVYPLAPGSAAQTNSMVTLGCLVKGYFPEPVTVTWNSGSLSSGVHTFPAVLQSDLYTLSSSVTVPSSTWPSQTVTCNVAHPASSTKVDKKIVPRDCGCKPCICTVPEVSSVFIFPPKPKDVLTITLTPKVTCVVVDISKDDPEVQFSWFVDDVEVHTAQTKPREEQINSTFRSVSELPIMHQDWLNGKEFKCRVNSAAFPAPIEKTISKTKGRPKAPQVYTIPPPKEQMAKDKVSLTCMITNFFPEDITVEWQWNGQPAENYKNTQPIMDTDGSYFVYSKLNVQKSNWEAGNTFTCSVLHEGLHNHHTEKSLSHSPGK
VL: DIVMSQSPSSLAVSAGEKVTMSCKSSQSLLNSRTRKNYLAWYQQKPGQSPKLLIYWASTRESGVPDRFTGSGSGTDFTLTISSVQAEDLAVYYCKQSFYLRTFGGGTKLDIK
notes: also called murine DC8E8; mouse DC8E8
amount of fibrillized pathological tau forms (Thioflavin T fluorescence), antibody at 10 uM [1]: < 4.7%
Kd [2]: ~10 nM
binding result (tau peptide 282-311): binds

B2: chimeric DC8E8 (isotype not stated where tested) (antibody)
VH: QVQLQQSGPELVKPGTSVKMPCKASGYIFTDYVISWVKQRTGQGLEWIGEIFPRSGSTYYNEKFKGKATLTADKSSNTAYMQLSSVTSEDSAVYFCARDYYGTSFAMDYWGQGTSVTVSS
light: DIVMSQSPSSLAVSAGEKVTMSCKSSQSLLNSRTRKNYLAWYQQKPGQSPKLLIYWASTRESGVPDRFTGSGSGTDFTLTISSVQAEDLAVYYCKQSFYLRTFGGGTKLDIKRTVAAPSVFIFPPSDEQLKSGTASVVCLLNNFYPREAKVQWKVDNALQSGNSQESVTEQDSKDSTYSLSSTLTLSKADYEKHKVYACEVTHQGLSSPVTKSFNRGEC
notes: Whole chimeric antibody with human constant regions; also called chimeric antibody
amount of fibrillized pathological tau forms (Thioflavin T fluorescence), antibody at 10 uM [1]: < 5.9%
Kd [2]: ~10 nM

binding result [3]: binds
B3: AX002, humanized DC8E8 RHB/RKA (isotype not stated where tested) (antibody)
VH: QVQLVQSGPEVKKPGSSVKVPCKASGYIFTDYVISWVKQAPGQGLEWIGEIFPRSGSTYYNEKFKGKATLTADKSTSTAYMELSSLRSEDTAVYFCARDYYGTSFAMDYWGQGTLVTVSS
light: DIVMTQSPLSLPVTPGEPASISCKSSQSLLNSRTRKNYLAWYLQKPGQSPQLLIYWASTRESGVPDRFTGSGSGTDFTLKISRVEAEDVGVYYCKQSFYLRTFGQGTKVEIKRTVAAPSVFIFPPSDEQLKSGTASVVCLLNNFYPREAKVQWKVDNALQSGNSQESVTEQDSKDSTYSLSSTLTLSKADYEKHKVYACEVTHQGLSSPVTKSFNRGEC

Kd [2]: 9 nM
B4: AX016, humanized DC8E8 RHD/RKB (isotype not stated where tested) (antibody)
VH: B3 VH with P9A, P21S, I28T, T30S, K38R, I48M, K67R, A68V, L70I, F95Y
light: B3 light with T5S
notes: also called AX016 (DB)
